Literature values as cited in paper PMC2663012.

Target: PKR (Homo sapiens) (UniProt P19525)
Assay: analytical ultracentrifugation

Substance: PKR (from UniProt P19525)
- Kd: 450 µM
